# Laboratory results taken from article PMC4299599, “Quantification of cytosolic interactions identifies Ede1 oligomers as key organizers of endocytosis” (Molecular Systems Biology, 2014).
# T1: Pan1 (S. cerevisiae, UniProt P32521 1-1480)
# T1 construct: Pan1, S. cerevisiae; also called Pan1-1myeGFP; Pan1-3mCherry; source: chromosomally tagged at the endogenous locus, in the cytoplasm of living S. cerevisiae cells
# T1 sequence (looked up): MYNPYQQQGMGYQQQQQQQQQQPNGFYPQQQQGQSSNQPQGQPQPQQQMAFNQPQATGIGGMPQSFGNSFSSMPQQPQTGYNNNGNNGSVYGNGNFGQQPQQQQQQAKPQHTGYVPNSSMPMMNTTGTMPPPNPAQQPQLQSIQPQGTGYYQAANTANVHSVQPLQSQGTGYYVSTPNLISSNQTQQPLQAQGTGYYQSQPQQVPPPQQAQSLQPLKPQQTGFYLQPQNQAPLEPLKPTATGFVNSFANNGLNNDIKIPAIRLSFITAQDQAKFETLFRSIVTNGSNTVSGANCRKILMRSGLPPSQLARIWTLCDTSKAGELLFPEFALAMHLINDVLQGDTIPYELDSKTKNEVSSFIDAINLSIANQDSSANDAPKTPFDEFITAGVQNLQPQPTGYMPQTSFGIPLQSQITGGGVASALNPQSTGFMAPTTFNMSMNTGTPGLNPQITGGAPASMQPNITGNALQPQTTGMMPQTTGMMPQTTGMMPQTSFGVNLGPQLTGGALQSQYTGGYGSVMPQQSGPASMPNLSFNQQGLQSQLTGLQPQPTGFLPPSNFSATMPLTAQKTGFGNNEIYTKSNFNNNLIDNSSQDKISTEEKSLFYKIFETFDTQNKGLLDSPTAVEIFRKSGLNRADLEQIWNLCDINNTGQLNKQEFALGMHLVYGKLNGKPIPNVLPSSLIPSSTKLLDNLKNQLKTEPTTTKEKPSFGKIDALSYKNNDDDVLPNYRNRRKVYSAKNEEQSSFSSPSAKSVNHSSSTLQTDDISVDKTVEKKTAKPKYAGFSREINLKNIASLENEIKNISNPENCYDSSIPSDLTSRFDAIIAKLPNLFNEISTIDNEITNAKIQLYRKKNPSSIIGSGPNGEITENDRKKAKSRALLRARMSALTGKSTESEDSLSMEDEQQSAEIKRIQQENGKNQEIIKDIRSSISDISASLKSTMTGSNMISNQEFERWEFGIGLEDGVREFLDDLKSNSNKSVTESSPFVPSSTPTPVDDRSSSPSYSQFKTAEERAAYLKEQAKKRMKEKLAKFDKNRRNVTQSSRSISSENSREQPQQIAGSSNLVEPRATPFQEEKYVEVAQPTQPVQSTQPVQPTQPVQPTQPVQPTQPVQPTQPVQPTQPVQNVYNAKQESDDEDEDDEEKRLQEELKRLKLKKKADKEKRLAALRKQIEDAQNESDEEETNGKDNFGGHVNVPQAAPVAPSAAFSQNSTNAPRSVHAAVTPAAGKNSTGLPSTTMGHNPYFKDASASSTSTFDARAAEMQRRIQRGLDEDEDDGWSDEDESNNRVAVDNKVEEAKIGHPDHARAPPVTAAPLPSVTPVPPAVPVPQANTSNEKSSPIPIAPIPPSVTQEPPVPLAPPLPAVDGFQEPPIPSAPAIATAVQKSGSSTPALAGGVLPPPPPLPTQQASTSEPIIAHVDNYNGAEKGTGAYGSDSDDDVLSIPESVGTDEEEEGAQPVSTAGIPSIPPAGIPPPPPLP
# Key:
# [1] = molecular target: the molecule itself; test: fluorescence cross-correlation spectroscopy (FCCS); self-interaction: living diploid yeast cells with one allele fused to (3)myeGFP and one to (3)mCherry, cytoplasm; apparent (effective) KD, to be taken as the upper limit since complexes of one colour are not seen
# [2] = molecular target: the molecule itself; test: fluorescence cross-correlation spectroscopy (FCCS); in the cytoplasm of living yeast cells; first-named protein green (3myeGFP or 1myeGFP; eGFP for Don1), second red (3mCherry); self-interaction in diploid strains with one allele of each colour; apparent or effective KD (Kdeff) from single-cell measurements; only Kdeff values < 1000 nM are shown; values for self-interactions are upper limits
# [3] = molecular target: the molecule itself; test: FCS molecular brightness (counts per particle per second); living yeast cells, cytoplasm; brightness of GFP-tagged particles compared with 3myeGFP and Ent2-3myeGFP (monomers) or with wild-type Ede1; average of all particles
# Pan1 = molecular target: T1, Pan1; test: fluorescence cross-correlation spectroscopy (FCCS); in the cytoplasm of living yeast cells; first-named protein green (3myeGFP or 1myeGFP; eGFP for Don1), second red (3mCherry); self-interaction in diploid strains with one allele of each colour; apparent or effective KD (Kdeff) from single-cell measurements; only Kdeff values < 1000 nM are shown; values for self-interactions are upper limits; conditions: partners not purified
Binder,Kd [1] [nM],Kd [2] [nM],molecular brightness per particle relative to 3myeGFP [3] [fold],Kd (Pan1) [nM]
"ede1Δ591–1381 (myeGFP / mCherry fusions) (domain or fragment, S. cerevisiae, UniProt P34216 1-590, looked up, 1myeGFP fusion for FCS; diploid with one myeGFP and one mCherry allele for FCCS; Each copy carries one tag; also called ede1^Δ591–1391; source: S. cerevisiae, endogenously expressed truncation mutant, in living cells; not shown: myeGFP, C-terminal, kept; mCherry, C-terminal, kept) MASITFRTPLSSQEQAFYNQKFHQLDTEDLGVVTGEAVRPLFASSGLPGQLLSQVWATVDIDNKGFLNLNEFSAALRMIAQLQNAPNQPISAALYESTPTQLASFSINQNPAPMQSGSATGNTNNTDIPALSSNDIAKFSQLFDRTAKGAQTVAGDKAKDIFLKARLPNQTLGEIWALCDRDASGVLDKSEFIMAMYLIQLCMSHHPSMNTPPAVLPTQLWDSIRLEPVVVNQPNRTTPLSANSTGVSSLTRHSTISRLSTGAFSNAASDWSLSFEKKQQFDAIFDSLDKQHAGSLSSAVLVPFFLSSRLNQETLATIWDLADIHNNAEFTKLEFAIAMFLIQKKNAGVELPDVIPNELLQSPALGLYPPNPLPQQQSAPQIAIPSRASKPSLQDMPHQVSAPAVNTQPTVPQVLPQNSNNGSLNDLLALNPSFSSPSPTKAQTVVQNNTNNSFSYDNNNGQATLQQQQPQQPPPLTHSSSGLKKFTPTSNFGQSIIKEEPEEQEQLRESSDTFSAQPPPVPKHASSPVKRTASTTLPQVPNFSVFSMPAGAATSAATGAAVGAAVGAAALGASAFSRSSNNAFKNQDLF",> 1000,–,–,–
"Bbc1 (natural protein, S. cerevisiae, UniProt P47068 1-1157, looked up, Bbc1, S. cerevisiae; also called Bbc1-3myeGFP; Bbc1-3mCherry; source: chromosomally tagged at the endogenous locus, in the cytoplasm of living S. cerevisiae cells) MSEPEVPFKVVAQFPYKSDYEDDLNFEKDQEIIVTSVEDAEWYFGEYQDSNGDVIEGIFPKSFVAVQGSEVGKEAESSPNTGSTEQRTIQPEVEQKDLPEPISPETKKETLSGPVPVPAATVPVPAATVPVPAATAVSAQVQHDSSSGNGERKVPMDSPKLKARLSMFNQDITEQVPLPKSTHLDLENIPVKKTIVADAPKYYVPPGIPTNDTSNLERKKSLKENEKKIVPEPINRAQVESGRIETENDQLKKDLPQMSLKERIALLQEQQRLQAAREEELLRKKAKLEQEHERSAVNKNEPYTETEEAEENEKTEPKPEFTPETEHNEEPQMELLAHKEITKTSREADEGTNDIEKEQFLDEYTKENQKVEESQADEARGENVAEESEIGYGHEDREGDNDEEKEEEDSEENRRAALRERMAKLSGASRFGAPVGFNPFGMASGVGNKPSEEPKKKQHKEKEEEEPEQLQELPRAIPVMPFVDPSSNPFFRKSNLSEKNQPTETKTLDPHATTEHEQKQEHGTHAYHNLAAVDNAHPEYSDHDSDEDTDDHEFEDANDGLRKHSMVEQAFQIGNNESENVNSGEKIYPQEPPISHRTAEVSHDIENSSQNTTGNVLPVSSPQTRVARNGSINSLTKSISGENRRKSINEYHDTVSTNSSALTETAQDISMAAPAAPVLSKVSHPEDKVPPHPVPSAPSAPPVPSAPSVPSAPPVPPAPPALSAPSVPPVPPVPPVSSAPPALSAPSIPPVPPTPPAPPAPPAPLALPKHNEVEEHVKSSAPLPPVSEEYHPMPNTAPPLPRAPPVPPATFEFDSEPTATHSHTAPSPPPHQNVTASTPSMMSTQQRVPTSVLSGAEKESRTLPPHVPSLTNRPVDSFHESDTTPKVASIRRSTTHDVGEISNNVKIEFNAQERWWINKSAPPAISNLKLNFLMEIDDHFISKRLHQKWVVRDFYFLFENYSQLRFSLTFNSTSPEKTVTTLQERFPSPVETQSARILDEYAQRFNAKVVEKSHSLINSHIGAKNFVSQIVSEFKDEVIQPIGARTFGATILSYKPEEGIEQLMKSLQKIKPGDILVIRKAKFEAHKKIGKNEIINVGMDSAAPYSSVVTDYDFTKNKFRVIENHEGKIIQNSYKLSHMKSGKLKVFRIVARGYVGW",–,115,–,–
"Ede1 (Ede1-3myeGFP / Ede1-3mCherry) (natural protein, S. cerevisiae, UniProt P34216 1-1381, looked up, Ede1, S. cerevisiae, homolog of mammalian Eps15; expressed from its own locus; also called wild-type Ede1; full-length Ede1; source: S. cerevisiae, chromosomally tagged at the endogenous locus, in living cells; not shown: 3myeGFP, C-terminal, kept; 3mCherry, C-terminal, kept) MASITFRTPLSSQEQAFYNQKFHQLDTEDLGVVTGEAVRPLFASSGLPGQLLSQVWATVDIDNKGFLNLNEFSAALRMIAQLQNAPNQPISAALYESTPTQLASFSINQNPAPMQSGSATGNTNNTDIPALSSNDIAKFSQLFDRTAKGAQTVAGDKAKDIFLKARLPNQTLGEIWALCDRDASGVLDKSEFIMAMYLIQLCMSHHPSMNTPPAVLPTQLWDSIRLEPVVVNQPNRTTPLSANSTGVSSLTRHSTISRLSTGAFSNAASDWSLSFEKKQQFDAIFDSLDKQHAGSLSSAVLVPFFLSSRLNQETLATIWDLADIHNNAEFTKLEFAIAMFLIQKKNAGVELPDVIPNELLQSPALGLYPPNPLPQQQSAPQIAIPSRASKPSLQDMPHQVSAPAVNTQPTVPQVLPQNSNNGSLNDLLALNPSFSSPSPTKAQTVVQNNTNNSFSYDNNNGQATLQQQQPQQPPPLTHSSSGLKKFTPTSNFGQSIIKEEPEEQEQLRESSDTFSAQPPPVPKHASSPVKRTASTTLPQVPNFSVFSMPAGAATSAATGAAVGAAVGAAALGASAFSRSSNNAFKNQDLFADGEASAQLSNATTEMANLSNQVNSLSKQASITNDKKSRATQELKRVTEMKNSIQIKLNNLRSTHDQNVKQTEQLEAQVLQVNKENETLAQQLAVSEANYHAAESKLNELTTDLQESQTKNAELKEQITNLNSMTASLQSQLNEKQQQVKQERSMVDVNSKQLELNQVTVANLQKEIDGLGEKISVYLTKQKELNDYQKTVEEQHAQLQAKYQDLSNKDTDLTDREKQLEERNRQIEEQENLYHQHVSKLQEMFDDLSQRKASFEKADQELKERNIEYANNVRELSERQMNLAMGQLPEDAKDIIAKSASNTDTTTKEATSRGNVHEDTVSKFVETTVENSNLNVNRVKDDEEKTERTESDVFDRDVPTLGSQSDSENANTNNGTQSGNETANPNLTETLSDRFDGDLNEYGIPRSQSLTSSVANNAPQSVRDDVELPETLEERDTINNTANRDNTGNLSHIPGEWEATPATASTDVLSNETTEVIEDGSTTKRANSNEDGESVSSIQESPKISAQPKAKTINEEFPPIQELHIDESDSSSSDDDEFEDTREIPSATVKTLQTPYNAQPTSSLEIHTEQVIKYPAPGTSPSHNEGNSKKASTNSILPVKDEFDDEFAGLEQAAVEEDNGADSESEFENVANAGSMEQFETIDHKDLDDELQMNAFTGTLTSSSNPTIPKPQVQQQSTSDPAQVSNDEWDEIFAGFGNSKAEPTKVATPSIPQQPIPLKNDPIVDASLSKGPIVNRGVATTPKSLAVEELSGMGFTEEEAHNALEKCNWDLEAATNFLLDSA",127,–,~2.5,–
"Sla2 (natural protein, S. cerevisiae, UniProt P33338 1-968, looked up, Sla2, S. cerevisiae; also called Sla2-3myeGFP; Sla2-3mCherry; source: chromosomally tagged at the endogenous locus, in the cytoplasm of living S. cerevisiae cells) MSRIDSDLQKALKKACSVEETAPKRKHVRACIVYTWDHQSSKAVFTTLKTLPLANDEVQLFKMLIVLHKIIQEGHPSALAEAIRDRDWIRSLGRVHSGGSSYSKLIREYVRYLVLKLDFHAHHRGFNNGTFEYEEYVSLVSVSDPDEGYETILDLMSLQDSLDEFSQIIFASIQSERRNTECKISALIPLIAESYGIYKFITSMLRAMHRQLNDAEGDAALQPLKERYELQHARLFEFYADCSSVKYLTTLVTIPKLPVDAPDVFLINDVDESKEIKFKKREPSVTPARTPARTPTPTPPVVAEPAISPRPVSQRTTSTPTGYLQTMPTGATTGMMIPTATGAANAIFPQATAQMQPDFWANQQAQFANEQNRLEQERVQQLQQQQAQQELFQQQLQKAQQDMMNMQLQQQNQHQNDLIALTNQYEKDQALLQQYDQRVQQLESEITTMDSTASKQLANKDEQLTALQDQLDVWERKYESLAKLYSQLRQEHLNLLPRFKKLQLKVNSAQESIQKKEQLEHKLKQKDLQMAELVKDRDRARLELERSINNAEADSAAATAAAETMTQDKMNPILDAILESGINTIQESVYNLDSPLSWSGPLTPPTFLLSLLESTSENATEFATSFNNLIVDGLAHGDQTEVIHCVSDFSTSMATLVTNSKAYAVTTLPQEQSDQILTLVKRCAREAQYFFEDLMSENLNQVGDEEKTDIVINANVDMQEKLQELSLAIEPLLNIQSVKSNKETNPHSELVATADKIVKSSEHLRVDVPKPLLSLALMIIDAVVALVKAAIQCQNEIATTTSIPLNQFYLKNSRWTEGLISAAKAVAGATNVLITTASKLITSEDNENTSPEQFIVASKEVAASTIQLVAASRVKTSIHSKAQDKLEHCSKDVTDACRSLGNHVMGMIEDDHSTSQQQQPLDFTSEHTLKTAEMEQQVEILKLEQSLSNARKRLGEIRRHAYYNQDDD",–,133,–,539
